Our source for the stoichiometry N values is article PMC3655159.

The target of assay [1] is HSV-1 gB ectodomain gB730 (residues 31-730) (HSV-1 (strain KOS)) (UniProt P06437). Kind of assay: SDS-PAGE under mildly denaturing conditions.
The target is the same in assay [2]. Kind of assay: SDS-PAGE under mildly denaturing conditions + Western blot.

Broadly, the stoichiometry N is a count of units in the complex or per binding partner. With “HSV-1 gB ectodomain gB730 (residues 31-730) (from UniProt P06437 31-730) (domain or fragment)”, the stoichiometry N in assay [1] and in assay [2] was 3 each time.
